These results are taken from patent publication US20240024520A1, “AUTONOMOUS KNOB DOMAIN PEPTIDES” (UCB BIOPHARMA SRL, priority 2020, published 2024).

In assay [1] the target is C5 (Homo sapiens, UniProt P01031). The assay is described as follows: Monoclonal phage screening ELISA, human C5. The class given is binding. As to conditions: anti-C5 ultralong CDR-H3; binder = OD>0.2 AU. How it is done:
(§1) For the C5 libraries, a single round of enrichment was performed with either human or rat C5 protein. […] Phage were blocked for 30 minutes. Biotinylated antigen was added to the blocked phage at a concentration of 100 nM and incubated at room temperature with mixing.
(§2) Colonies were picked into a 96-well culture plate containing selective medium 2TY supplemented with 1% Glucose and 100 μg/ml Carbenicillin and was incubated at 37° C. until wells reached mid-log phase of growth prior to addition of M13K07 helper phage. The block was incubated without shaking for 1 hour to achieve infection and phage production using continued culture in selective media supplemented with 50 μg/ml Kanamycin and 100 μg/ml Carbenicillin.
Binding to antigen was assessed by monoclonal phage ELISA, 96-well flat bottom Nunc MaxiSorp plates (Thermofisher) were coated with a 2.5 μg/ml solution of human, mouse, or rat serum albumin, human C5 or mouse C5 diluted with PBS, and left overnight at 4° C. Negative control plate and Anti-myc tag plate were also prepared.
Monoclonal phage rescue supernatants were blocked with an equal volume of a 2% milk (w/v) in PBS, for serum albumin proteins, or 2% BSA and 2% milk (w/v) in PBS solution. The coating solution was removed from coated Nunc plates and each plate was blocked with 1% BSA in PBS (for C5 libraries) or 1% milk powder (for albumin library). Both phage and Nunc plates were blocked for 1 hour at room temperature. Nunc plates were washed using a 96-well microplate washer (BioTek) with a PBS solution contain 0.1% Tween20 (Sigma Aldrich). 100 of blocked phage solution was added to each well of Nunc MaxiSorp plate and left shaking at room temperature for 1 hour. Plates were washed and dried as previously described. 100 of an Anti-M13-Horse radish peroxidase conjugated antibody (GE Healthcare) diluted (1:5,000) in a 1% BSA or milk solution was added to each well and left shaking at room temperature for 1 hour. Plates were washed again and 50 μL of TMB solution (Merck Millipore) was added to each well. Plates were left shaking for 10 minutes. Absorbance was measured at 630 nm and 490 nm. Binding signals were obtained where Absorbance at 630 nm was >3-times the signal upon irrelevant antigen.
By monoclonal phage ELISA the following ultralong CDR-H3 sequences were identified as binders (OD>0.2 AU): […]

Assay [2] concerns the target rat C5 protein (Rattus norvegicus, UniProt P08650). The assay can be described thus: Monoclonal phage screening ELISA, rat C5. Conditions: anti-C5 ultralong CDR-H3; binder = OD>0.2 AU. The assay is classed as binding. The method, then:
as §1, §2
[…] Negative control plate and Anti-myc tag plate were also prepared.
Monoclonal phage rescue supernatants were blocked with an equal volume of a 2% milk (w/v) in PBS, for serum albumin proteins, or 2% BSA and 2% milk (w/v) in PBS solution. The coating solution was removed from coated Nunc plates and each plate was blocked with 1% BSA in PBS (for C5 libraries) or 1% milk powder (for albumin library). Both phage and Nunc plates were blocked for 1 hour at room temperature. […] Absorbance was measured at 630 nm and 490 nm. Binding signals were obtained where Absorbance at 630 nm was >3-times the signal upon irrelevant antigen. […]
(In an ELISA, binding on a coated surface is turned into a signal by an enzyme label.)

Chain of C5 (P01031 19-1676): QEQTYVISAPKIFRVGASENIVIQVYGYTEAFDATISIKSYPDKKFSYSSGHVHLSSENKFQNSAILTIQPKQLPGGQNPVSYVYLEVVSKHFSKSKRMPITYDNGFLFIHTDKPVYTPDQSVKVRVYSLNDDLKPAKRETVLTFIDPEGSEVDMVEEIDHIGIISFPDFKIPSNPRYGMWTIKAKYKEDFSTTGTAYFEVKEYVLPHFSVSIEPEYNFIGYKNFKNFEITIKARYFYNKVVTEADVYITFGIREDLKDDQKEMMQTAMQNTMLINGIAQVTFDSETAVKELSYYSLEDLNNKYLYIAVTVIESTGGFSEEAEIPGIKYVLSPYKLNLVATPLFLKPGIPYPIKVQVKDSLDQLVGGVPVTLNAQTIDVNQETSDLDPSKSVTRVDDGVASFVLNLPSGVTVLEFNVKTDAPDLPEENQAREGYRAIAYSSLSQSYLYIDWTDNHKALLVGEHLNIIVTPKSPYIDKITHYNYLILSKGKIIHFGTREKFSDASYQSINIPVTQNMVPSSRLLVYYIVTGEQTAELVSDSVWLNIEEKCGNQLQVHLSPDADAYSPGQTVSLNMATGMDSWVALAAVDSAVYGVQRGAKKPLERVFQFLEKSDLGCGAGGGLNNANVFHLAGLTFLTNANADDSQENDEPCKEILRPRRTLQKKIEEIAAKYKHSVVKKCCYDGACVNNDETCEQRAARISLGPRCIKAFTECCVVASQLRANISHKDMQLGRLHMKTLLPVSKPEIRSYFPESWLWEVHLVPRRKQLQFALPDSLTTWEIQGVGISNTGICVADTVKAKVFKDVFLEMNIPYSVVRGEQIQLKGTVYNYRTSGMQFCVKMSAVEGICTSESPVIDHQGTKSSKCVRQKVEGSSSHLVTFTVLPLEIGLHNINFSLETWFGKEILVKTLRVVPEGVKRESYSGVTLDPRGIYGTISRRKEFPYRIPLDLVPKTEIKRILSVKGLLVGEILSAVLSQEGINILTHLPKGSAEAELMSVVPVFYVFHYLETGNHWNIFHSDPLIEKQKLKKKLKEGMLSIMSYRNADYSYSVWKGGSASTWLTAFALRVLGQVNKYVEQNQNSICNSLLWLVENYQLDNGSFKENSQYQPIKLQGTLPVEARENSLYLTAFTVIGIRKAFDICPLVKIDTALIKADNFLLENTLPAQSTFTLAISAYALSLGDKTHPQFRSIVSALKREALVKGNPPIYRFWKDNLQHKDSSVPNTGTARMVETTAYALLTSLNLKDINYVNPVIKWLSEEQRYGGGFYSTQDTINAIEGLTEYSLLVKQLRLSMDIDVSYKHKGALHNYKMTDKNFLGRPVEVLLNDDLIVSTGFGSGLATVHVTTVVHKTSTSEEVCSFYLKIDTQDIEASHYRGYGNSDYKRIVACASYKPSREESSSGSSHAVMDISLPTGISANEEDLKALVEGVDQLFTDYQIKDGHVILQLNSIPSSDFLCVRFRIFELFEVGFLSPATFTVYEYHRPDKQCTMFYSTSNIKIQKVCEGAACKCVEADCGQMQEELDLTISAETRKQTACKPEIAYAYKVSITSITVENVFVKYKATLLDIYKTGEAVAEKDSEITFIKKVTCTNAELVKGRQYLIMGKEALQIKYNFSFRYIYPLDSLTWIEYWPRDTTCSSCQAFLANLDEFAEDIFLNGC
Chain of rat C5 protein (P08650 19-674 limits assumed): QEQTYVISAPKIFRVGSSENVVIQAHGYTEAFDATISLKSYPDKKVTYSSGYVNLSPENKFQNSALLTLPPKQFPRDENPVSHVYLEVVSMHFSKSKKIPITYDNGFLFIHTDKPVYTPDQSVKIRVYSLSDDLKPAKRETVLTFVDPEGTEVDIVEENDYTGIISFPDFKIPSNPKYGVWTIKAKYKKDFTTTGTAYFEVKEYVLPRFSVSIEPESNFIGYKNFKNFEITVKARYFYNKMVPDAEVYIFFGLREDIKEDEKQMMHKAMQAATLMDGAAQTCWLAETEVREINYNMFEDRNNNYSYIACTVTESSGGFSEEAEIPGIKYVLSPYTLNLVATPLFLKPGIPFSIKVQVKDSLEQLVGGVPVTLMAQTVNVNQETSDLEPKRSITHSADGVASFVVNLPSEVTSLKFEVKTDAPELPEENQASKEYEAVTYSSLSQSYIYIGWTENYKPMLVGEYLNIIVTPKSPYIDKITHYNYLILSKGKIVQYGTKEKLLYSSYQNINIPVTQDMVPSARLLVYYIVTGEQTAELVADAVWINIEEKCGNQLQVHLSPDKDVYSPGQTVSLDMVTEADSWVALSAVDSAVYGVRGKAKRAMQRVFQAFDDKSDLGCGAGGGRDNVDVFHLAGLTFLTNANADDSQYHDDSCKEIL
Chain of rat C5 protein (P08650 679-1681 limits assumed): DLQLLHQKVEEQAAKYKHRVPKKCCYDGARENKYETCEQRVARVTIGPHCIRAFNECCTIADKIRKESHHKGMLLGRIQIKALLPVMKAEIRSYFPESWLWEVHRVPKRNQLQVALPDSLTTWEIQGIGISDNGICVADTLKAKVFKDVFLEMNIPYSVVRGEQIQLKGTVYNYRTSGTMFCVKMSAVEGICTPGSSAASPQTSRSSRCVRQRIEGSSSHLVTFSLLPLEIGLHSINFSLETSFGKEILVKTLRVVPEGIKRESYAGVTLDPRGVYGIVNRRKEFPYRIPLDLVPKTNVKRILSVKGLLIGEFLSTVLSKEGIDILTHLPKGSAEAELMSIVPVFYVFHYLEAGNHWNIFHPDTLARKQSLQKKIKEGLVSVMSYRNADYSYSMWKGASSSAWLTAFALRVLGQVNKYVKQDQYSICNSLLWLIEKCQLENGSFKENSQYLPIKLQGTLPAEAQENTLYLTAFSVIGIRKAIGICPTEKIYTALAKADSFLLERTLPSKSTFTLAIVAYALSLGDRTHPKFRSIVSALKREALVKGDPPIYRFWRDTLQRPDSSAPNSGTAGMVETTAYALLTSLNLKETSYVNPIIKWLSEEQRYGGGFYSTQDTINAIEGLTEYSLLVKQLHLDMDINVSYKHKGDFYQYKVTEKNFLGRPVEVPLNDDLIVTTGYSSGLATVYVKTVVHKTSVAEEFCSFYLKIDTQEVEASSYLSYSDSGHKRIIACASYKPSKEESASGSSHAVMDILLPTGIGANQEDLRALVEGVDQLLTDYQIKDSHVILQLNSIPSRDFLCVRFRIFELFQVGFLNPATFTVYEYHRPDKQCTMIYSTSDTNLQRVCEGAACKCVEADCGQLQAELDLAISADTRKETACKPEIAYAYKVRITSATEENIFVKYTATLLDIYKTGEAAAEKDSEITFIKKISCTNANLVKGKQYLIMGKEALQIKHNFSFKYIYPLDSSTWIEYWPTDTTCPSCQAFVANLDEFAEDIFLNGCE

B1: 556 (protein)
CDR: TTVHQKTTRVNSCPDGYGYGDGYCYDSGCSASDCYGVDALYSYGHCGCSIYTERPRYEWYVD
modifications: Anti-C5 ultralong CDR-H3
Turning to B1, the Specificity result in assay [1] is “Human and Rat”; in assay [2], “Human and Rat”.
